Experimental data from patent US20110301120A1, “USE OF A CHITOSAN POLYMER FOR HEPARIN NEUTRALIZATION” (UNIWERSYTET JAGIELLONSKI, priority 2009, published 2011).

Columns and labels:
[1] = Interaction of heparin with cationically-modified chitosan at pH 7.4 (Azure A method); type: binding
Method: The concentration of in solution was determined spectrophotometrically using Azure A. 0.9 ml of proper buffer was added to 0.1 ml of heparin solution, followed by addition of 1.0 ml of Azure A solution at 8.0·10^−5 M and the absorption spectrum of the obtained solution was measured. The concentration of heparin was determined on the basis of the intensity of absorption band at 630 nm, which corresponds to monomeric molecules of Azure A. The concentration of free heparin after addition of chitosan was determined by mixing at defined proportions of chitosan solutions in acetic acid. After 10 minutes of energetic shaking the mixtures obtained were centrifuged at 3000 rpm in order to separate the insoluble complex. The concentration of free heparin was determined in the supernatant.
The interaction of modified polymers with heparin in the aqueous solution at pH 7.4 was studied (FIG. 2). By measuring heparin concentration with Azure A method it was shown that cationically-modified chitosan effectively complexes free heparin in solution at pH 7.4.
The efficiency of heparin complexation by both polymers obtained was compared with the efficiency of protamine, a heparin-reversal agent commonly used in medicine (Table 1).

[2] = Dynamic light scattering: size of polymer objects and of their complexes with heparin; type: physicochemical; details: PBS
Method: The UV spectra were recorded using a diode-array HP 8452A spectrophotometer in quartz cuvettes with 1 cm optical path. The microscopic images were obtained using Nikon TE-2000 fluorescence microscope. The size of aggregates in suspensions was determined using a Zetasizer Nano ZS instrument from Malvern Instruments Ltd.
Using dynamic light scattering technique the size of objects formed by protamine and ChGl1 in the aqueous solution at pH 7.4 was measured (FIG. 3). The solutions of polymers were prepared in the PBS buffer. The heparin-protamine and heparin-ChGl complexes were obtained by mixing the respective solutions at the volume ratio corresponding to the minimum amount of the polycation needed to completely bind heparin in the solution.
For such mixtures the size and polydispersity of particles were measured.

[3] = if not neutralized or removed from the bloodstream; cited from earlier work
[4] = fast injection, dogs; cited from earlier work
[5] = minimum amount of polycation needed to completely bind heparin

## protamine
[1]
  Mass required to bind 1 mg of heparin in PBS buffer at pH 7.4: 1.2661 mg
[2]; pH 7.4, without heparin
  size (diameter) of objects formed by the polymer: about 4 nm
[2]; [5]
  diameter of aggregates with heparin: ≤ 10 μm
  polydispersity of complexes with heparin: very polydisperse
[3]
  patients with adverse effects: about 10%
[4]
  hemodynamic effect: severe hypotension
